Measurements: patent US20030153020

Target: T1, LPXTG peptide DABCYL-QALPETGEE-EDANS
T1 chain: QALPETGEE

B1: SrtADN (SrtA in which the NH2-terminal membrane anchor segment is replaced with a six histidine tag) (protein)
chain: KPHIDNYLHDKDKDEKIEQYDKNVKEQASKDKKQQAKPQIPKDKSKVAGYIEIPDADIKEPVYPGPATPEQLNRGVSFAEENESLDDQNISIAGHTFIDRPNYQFTNLKAAKKGSMVYFKVGNETRKYKMTSIRDVKPTDVGVLDEQKGKDKQLTLITCDDYNEKTGVWEKRKIFVATEVK
- LPXTG peptide cleavage activity of MTSET-inactivated SrtADN after 10 mM DTT: restored 80% of LPXTG peptide cleavage activity
- cleavage of LPXTG peptide in the presence of 0.2 M NH2OH (fluorescence): Addition of 0.2 M NH2OH to this reaction resulted in an increase in fluorescence
- cleavage of LPXTG peptide measured as an increase in fluorescence: SrtADN catalyzed cleavage of the substrate
- hydroxylaminolysis of LPXTG peptide after pre-incubation with MTSET: pre-incubation with MTSET abolished all enzymatic activity
